From article PMC10709618, “Ag nanorod@PEI-Ag nanohybrid as an excellent signal label for sensitive and rapid detection of serum HER2”

Biological target: HER2 (GST-tagged, human) (human, UniProt P04626 676-1255)
Assay: electrochemical aptasensor (cyclic voltammetry); Ag NR@PEI-Ag nanohybrid label cast after HER2; LOD 10 pg (not a Kd); Aptamer 0.25 uM loaded on Au electrode; HER2 cast and dried under infrared lamp, PBS wash; CV in 0.1 M PBS pH 7, 100 mV/s; temperature not stated
Settings: protein: commercial; tags: GST

B1: HER2 aptamer (ssDNA)
DNA: GGGCCGTCGAACACGAGCATGGTGCGTGGACCTAGGATGACCTGAGTACTGTCC
modifications: 5'-thiol (SH)
- binding result: binds
